Measured values taken from US20110076298A1, “Soluble stabilized trimeric hiv env proteins and uses thereof” (priority 2006, published 2011).
Like-named read-outs stand apart in the source and are kept apart here.

Legend:
[1] = molecular target: HIV-1KNH1211 Env on Env-pseudotyped virus (HIV-1 KNH1211, subtype A); experiment: cell-based or functional assay
[2] = molecular target: HIV-1KER2008 Env on Env-pseudotyped virus (HIV-1 KER2008, subtype A); experiment: cell-based or functional assay
[3] = molecular target: HIV-1KNH1144 Env on Env-pseudotyped virus (HIV-1 KNH1144, subtype A); experiment: cell-based or functional assay
[4] = molecular target: HIV-1KNH1207 Env on Env-pseudotyped virus (HIV-1 KNH1207, subtype A); experiment: cell-based or functional assay
[5] = molecular target: gp120DU151 (subtype C) (HIV-1 DU151, subtype C); experiment: ELISA on D7324-captured gp120, half-maximal binding
[6] = molecular target: KNH1207 gp120 (monomeric, subtype A) (HIV-1 KNH1207, subtype A); experiment: as above
[7] = molecular target: gp120JR-FL (monomeric, subtype B) (HIV-1 JR-FL, subtype B); experiment: as above
[8] = molecular target: KER2008 gp120 (monomeric, subtype A) (HIV-1 KER2008, subtype A); experiment: as above
[9] = molecular target: Q23-17 gp120 (monomeric, subtype A) (HIV-1 Q23-17, subtype A); experiment: as above
[10] = molecular target: gp120BaL (subtype B) (HIV-1 BaL, subtype B); experiment: as above
[11] = molecular target: BB359 gp120 (monomeric, subtype A) (HIV-1 BB359, subtype A); experiment: as above
[12] = molecular target: KNH1144 gp120 (monomeric, subtype A) (HIV-1 KNH1144, subtype A); experiment: as above
[13] = molecular target: KNH1211 gp120 (monomeric, subtype A) (HIV-1 KNH1211, subtype A); experiment: as above
[14] = Detergent collapse effect on 5768.4 SOSIP R6 gp140 preparation, BN-PAGE; format: physicochemical; settings: 1 hour, room temperature
Method: FIG. 15: Detergent “collapse” effect on subtype B 5768.4 HMW aggregate. 0.24 ug of purified subtype B 5768.4 SOSIP R6 gp140 trimer was incubated with 0.05 or 0.1% Tween 20. In addition, similar incubations were performed with NP40, Triton X-100, and SDS (at a final concentration of 0.1%) or the trimer preparation was untreated. Reactions were separated on BN-PAGE and visualized by coomassie G-250 stain. Arrows indicate HMW aggregate, a2M contaminant, trimer and monomer proteins. M stands for the 669 k thyroglobulin and 440 k ferritin molecular weight protein standards.
Tween® 20 Dose effect: 1 ug of purified 5768.4 SOSIP R6 trimer was incubated with varying concentrations of Tween® 20 ranging from 0.1 to 0.0001% (v/v) and incubated for 1 hour at room temperature. Following incubation, samples were analyzed by BN-PAGE as described above. Detergent effect on 5768.4 SOSIP R6 gp140 trimer preparations: 0.24 ug of purified 5768.4 SOSIP R6 trimer was incubated with Triton X-100, NP-40, or SDS to a final detergent concentration of 0.1% (v/v) or with Tween® 20 at concentrations of 0.05 and 0.1% for 1 hour at room temperature. Following incubation, 4× BN-PAGE MOPS sample buffer was added and the samples were immediately analyzed on BN-PAGE at 150 V for 2 hours at room temperature, followed by Coomassie G-250 staining.

[15] = tested on: HIV-1JR-FL Env-pseudotyped virus; experiment: Env-pseudotyped HIV-1 neutralization assay, JR-FL Env; format: cell-based; settings: CCR5 inhibitors and RT inhibitor, read-out: Env-pseudotyped neutralization (50% endpoint) JR-FL
Method: (§1) FIGS. 4A-AF: Inhibition of infection by HIV-1JR-FL (filled circles) or HIV-1KNH1144 (open circles) Env-pseudotyped viruses by MAbs and fusion inhibitors. The viruses were incubated with the indicated concentrations of the inhibitors for 1 h prior to addition to U87.CD4.CCR5 cells. The luciferase content of cell lysates was determined after 3-4 days.
(§2) The generation and quantification of Env-pseudotyped HIV-1 viruses and their subsequent use in neutralization assays have been described previously.^45,65. U87.CD4.CCR5 target cells were used because the input pseudoviruses had the R5 phenotype. The amount of input pseudovirus was normalized by infectivity (virus titer). Virus infection was measured by determining luciferase expression in relative light units (RLU) in target cell lysates, according to the manufacturer's instructions (Promega, Madison, Wis.).
(§3) To assess the neutralization sensitivity of viruses bearing subtype A Env proteins, cytoplasmic tail-truncated gp140s from KER2008, KNH1144, KNH1207 and KNH1211 were co-expressed in trans with the pNL4/3.Luc plasmid to form single cycle, replication-incompetent pseudoviruses^72. Pseudovirions bearing the full-length Env protein from HIV-1JR-FL were also studied, for comparison.

[16] = tested on: HIV-1KNH1144 Env-pseudotyped virus; experiment: Env-pseudotyped HIV-1 neutralization assay, KNH1144 Env; format: cell-based; settings: CCR5 inhibitors and RT inhibitor, read-out: Env-pseudotyped neutralization (50% endpoint) KNH1144
Method: as §1, §2, §3

[17] = Oligomeric stability of purified SOSIP gp140 trimers to detergents, BN-PAGE; format: physicochemical; settings: 0.1% (v/v), 1 h, 25° C.
Method: Biophysical and antigenic characterization of purified trimers derived from KNH1144 SOSIP gp140. (A) Trimeric KNH1144 SOSIP gp140 was treated with 0.1% (v/v) ionic (SDS) and non-ionic (NP40, Nonidet-P40; Tw20 (Tween®-20); TX100 (Triton X-100) detergents for 1 h at 25° C. before BN-PAGE analysis. (B) Trimeric KNH1144 SOSIP gp140 was incubated with 0.5 μg/ml of the indicated MAbs or proteins, and then immunoprecipitated with protein G sepharose prior to analysis by SDS-PAGE.
The oligomeric stability of purified SOSIP gp140 trimers was determined essentially as previously described.^44 Briefly, 50 ng of protein was treated with 0.1% (v/v) SDS, Nonidet P-40, Tween®-20 or Triton X-100 for 1 h at room temperature, followed by analysis on BN-PAGE. The various oligomeric forms of Env resolved on the gel were detected by CA13 immunoblotting.
A purified Env trimer should meet several criteria to establish that it has been synthesized, folded, cleaved and otherwise post-translationally modified correctly. For example, it is important to establish that SOSIP gp140 trimers are oligomerized via non-covalent interactions between the gp41ECTO subunits, and not via aberrant inter-subunit disulfide bonds^40,66,67. For these assessments, purified KNH1144 SOSIP gp140 trimers were treated for 1 h at 25° C. with 0.1% (v/v) ionic (SDS) and non-ionic (NP-40, Tween®-20, Triton X-100) detergents and then analyzed by BN-PAGE. […] This is consistent with studies of JR-FL SOSIP gp140 trimers^44.

| Compound | EC50 [5] | EC50 [6] | EC50 [7] | EC50 [8] | EC50 [9] | EC50 [10] | EC50 [11] | EC50 [12] | EC50 [13] | other results |
| --- | --- | --- | --- | --- | --- | --- | --- | --- | --- | --- |
| human monoclonal IgG b12 (antibody) | 0.018 µg/mL | 0.092 µg/mL | 0.027 µg/mL | > 1 µg/mL | > 1 µg/mL | 0.015 µg/mL | > 1 µg/mL | 0.642 µg/mL | 0.033 µg/mL | IC50, neutralization of Env-pseudotyped virus [1]: 1.14 µg/mL; IC90, neutralization of Env-pseudotyped virus [1]: 1.9 µg/mL; IC90, neutralization of Env-pseudotyped virus [2]: > 3 µg/mL; IC90, neutralization of Env-pseudotyped virus [3]: > 3 µg/mL; IC50, neutralization of Env-pseudotyped virus [4]: 0.21 µg/mL; IC90, neutralization of Env-pseudotyped virus [4]: 0.9 µg/mL |
| 5768.4 SOSIP R6 gp140: subtype B 5768.4 envelope modified to the soluble SOSIP R6 gp140 trimer; SEQ ID NO:10 | – | – | – | – | – | – | – | – | – | effect of NP40 on HMW aggregate ([14]; 0.1%): collapse of HMW aggregate to trimer; effect of SDS ([14]; 0.1%): breaking down the entire 5768.4 gp140 protein to resulting monomers; effect of Triton X-100 on HMW aggregate ([14]; 0.1%): capable of collapsing HMW aggregate to trimer, however, some breakdown to monomeric 5768.4 was observed; effect of Tween (Tween 20 and Tween 80) on HMW aggregate ([14]; 0.1 and 0.05%): effectively collapsed HMW aggregate to trimers |
| Cc1cn([C@H]2C[C@H](N=[N+]=[N-])[C@@H](CO)O2)c(=O)[nH]c1=O [AZT] | – | – | – | – | – | – | – | – | – | IC50 [15]: 220 nM; IC50 [16]: 240 nM |
| CCO/N=C(\c1ccc(Br)cc1)C1CCN(C2(C)CCN(C(=O)c3c(C)cc[n+]([O-])c3C)CC2)CC1 [SCH-C] | – | – | – | – | – | – | – | – | – | IC50 ([15]; Human immunodeficiency virus 1): 0.2 nM; IC50 ([16]; Human immunodeficiency virus 1): 0.04 nM |
| COC[C@@H](c1ccc(C(F)(F)F)cc1)N1CCN(C2(C)CCN(C(=O)c3c(C)ncnc3C)CC2)C[C@@H]1C [SCH-D] | – | – | – | – | – | – | – | – | – | IC50 ([15]; Human immunodeficiency virus 1): 0.1 nM; IC50 ([16]; Human immunodeficiency virus 1): 0.01 nM |
| human monoclonal IgG 2F5 (antibody) | – | – | – | – | – | – | – | – | – | IC50, neutralization of Env-pseudotyped virus [1]: 0.03 µg/mL; IC90, neutralization of Env-pseudotyped virus [1]: 0.99 µg/mL; IC50, neutralization of Env-pseudotyped virus [2]: > 3 µg/mL; IC50, neutralization of Env-pseudotyped virus [3]: > 3 µg/mL; IC50, neutralization of Env-pseudotyped virus [4]: 0.01 µg/mL; IC90, neutralization of Env-pseudotyped virus [4]: 0.21 µg/mL |
| CD4-immunoglobulin G2 (CD4-IgG2) protein (from UniProt P01730 26-204) (Fc fusion) | 0.09 µg/mL | 0.068 µg/mL | 0.046 µg/mL | 0.236 µg/mL | 0.083 µg/mL | 0.057 µg/mL | – | 0.103 µg/mL | 0.063 µg/mL | – |
| MAb CA13 (ARP 3119) (antibody) | 0.043 µg/mL | 0.337 µg/mL | > 9 µg/mL | 1.57 µg/mL | 0.094 µg/mL | 0.059 µg/mL | 0.406 µg/mL | 0.636 µg/mL | 0.176 µg/mL | – |
| human monoclonal IgG 2G12 (antibody) | > 1 µg/mL | 0.478 µg/mL | 0.061 µg/mL | 0.064 µg/mL | 0.54 µg/mL | 0.012 µg/mL | > 1 µg/mL | > 1 µg/mL | > 1 µg/mL | – |
| KNH1144 SOSIP gp140: soluble, disulfide-stabilized, I571P-modified cleaved trimeric gp140 of HIV-1 subtype A KNH1144 | – | – | – | – | – | – | – | – | – | adverse effects of NP-40 on trimers [17]: little; adverse effects of Triton X-100 on trimers [17]: little; adverse effects of Tween-20 on trimers [17]: no; effect of SDS on trimers [17]: completely dissociate into dimers and monomers |
